Assay results as given in patent US20190389955A1 (HEMOGENYX PHARMACEUTICALS, published 2019).

Assays:
[1] = target: T1, human FLT3/FLK2 receptor protein (human, UniProt P36888 27-993); experiment: flow cytometry titration on REH cells, MFI against antibody concentration; the box prints no unit, the axis is printed 'mg/ml', the text gives ng/ml
T1 construct: whole, on cells; Cell-surface target in the flow cytometry experiments (REH cells and SP2/0-Hu-FLT3 cells); also called CD135; Hu-FLT3
T1 sequence (looked up): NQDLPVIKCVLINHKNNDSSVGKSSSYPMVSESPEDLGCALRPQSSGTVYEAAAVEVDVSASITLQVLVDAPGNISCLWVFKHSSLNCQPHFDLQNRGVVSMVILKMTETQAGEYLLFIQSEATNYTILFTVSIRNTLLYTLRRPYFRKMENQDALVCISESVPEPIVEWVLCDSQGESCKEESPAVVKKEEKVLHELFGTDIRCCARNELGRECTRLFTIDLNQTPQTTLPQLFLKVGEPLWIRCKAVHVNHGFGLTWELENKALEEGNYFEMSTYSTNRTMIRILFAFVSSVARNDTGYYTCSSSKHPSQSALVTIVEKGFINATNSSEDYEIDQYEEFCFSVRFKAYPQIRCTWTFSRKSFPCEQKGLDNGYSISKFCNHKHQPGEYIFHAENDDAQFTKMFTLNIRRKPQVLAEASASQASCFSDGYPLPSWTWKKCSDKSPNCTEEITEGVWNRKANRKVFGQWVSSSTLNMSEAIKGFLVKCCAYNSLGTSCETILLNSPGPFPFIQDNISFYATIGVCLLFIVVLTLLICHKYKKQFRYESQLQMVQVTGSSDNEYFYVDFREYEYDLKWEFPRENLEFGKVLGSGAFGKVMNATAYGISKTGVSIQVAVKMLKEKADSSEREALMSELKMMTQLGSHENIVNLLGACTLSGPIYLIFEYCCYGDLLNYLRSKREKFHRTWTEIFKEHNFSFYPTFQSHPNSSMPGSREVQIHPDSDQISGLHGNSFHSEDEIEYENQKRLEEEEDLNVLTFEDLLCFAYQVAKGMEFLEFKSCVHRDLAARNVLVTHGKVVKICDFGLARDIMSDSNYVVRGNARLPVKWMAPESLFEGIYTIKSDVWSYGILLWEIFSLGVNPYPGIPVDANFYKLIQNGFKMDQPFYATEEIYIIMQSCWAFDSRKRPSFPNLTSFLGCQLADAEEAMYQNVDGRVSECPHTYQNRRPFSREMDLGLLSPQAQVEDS
Method: (§1) Specificity of the monoclonal antibodies was determined by evaluating their affinity to the FLT3/FLK2 antigen. To define affinity of the anti-human FLT3/FLK2 antibodies, an Effective Concentration (EC) curve was built using flow cytometry. Nine monoclonal antibody clones were used to stain human REH cells that endogenously express human FLT3/FLK2. The concentration of the clones ranged from 1 ng/ml (6.25 pM) to 10,000 ng/ml (62.5 nM). […] The sequences of the clones are shown below.

[2] = target: T1, human FLT3/FLK2 receptor protein; experiment: flow cytometry, hybridoma supernatant on REH cells; same table: unstained 1292, secondary Ab alone 6905 (0.78%), isotype 13307 (12%)
[3] = target: T1, human FLT3/FLK2 receptor protein; experiment: flow cytometry, purified antibody on SP2/0 cells expressing human FLT3/FLK2; same table: unstained 6063, secondary Ab 9522, isotype 11518
[4] = target: T2, FLT3/FLK2 antigen (as used for Table 6) (human, UniProt P36888 27-541, limits assumed); experiment: kinetic fit, method not stated (Table 6)
T2 construct: also called human FLT3/FLK2 receptor protein
T2 sequence (looked up): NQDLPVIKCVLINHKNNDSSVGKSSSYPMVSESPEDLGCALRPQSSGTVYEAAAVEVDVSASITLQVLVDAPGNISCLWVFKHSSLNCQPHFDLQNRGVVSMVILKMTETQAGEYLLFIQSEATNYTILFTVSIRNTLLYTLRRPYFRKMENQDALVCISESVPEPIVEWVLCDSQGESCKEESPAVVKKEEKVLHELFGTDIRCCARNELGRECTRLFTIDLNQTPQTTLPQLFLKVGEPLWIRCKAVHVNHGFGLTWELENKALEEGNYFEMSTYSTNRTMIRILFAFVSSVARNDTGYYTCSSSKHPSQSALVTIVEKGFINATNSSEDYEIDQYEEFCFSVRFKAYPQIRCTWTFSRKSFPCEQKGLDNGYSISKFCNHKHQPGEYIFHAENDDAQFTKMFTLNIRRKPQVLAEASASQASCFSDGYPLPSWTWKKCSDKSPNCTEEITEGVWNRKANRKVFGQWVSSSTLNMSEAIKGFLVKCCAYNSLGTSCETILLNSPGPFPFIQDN

[5] = target: T1, human FLT3/FLK2 receptor protein; experiment: flow cytometry titration on REH cells; axis printed 'mg/ml', the text gives ng/ml
Method: as §1

[6] = target: T1, human FLT3/FLK2 receptor protein; experiment: flow cytometry titration on REH cells, MFI against antibody concentration; the box prints no unit, the axis is printed 'mg/ml', the text gives ng/ml; clone taken from the legend paragraph 65 (FIG. 5E: Ab1-18New)
Method: as §1

Binder | EC50 [1] | % POSITIVE CELLS [2] | MFI (IgC FITC) [2] | MFI [3] | Kd [4] | koff [4] | kon [4] | EC50 (read off the curve) [5] | EC50 [6]
MHC1696-2-8IA (antibody, V domains shown, Mouse hybridoma monoclonal antibody; also called A281A) VH: EIQLQQSGPELVKPGASVKVSCKASGYSFIDYNMYWVKQSHGKSLEWIGYINPYNGGTSNNQKFKDKATLTVDKSSSTAFMHLNSLTSEDSAVYYCARGTTGDYWGQGTTLTVSS VL: DTVLTQSPATLSVTPGDSVSLSCRASQSISNNLHWYQQKSHESPRLLIKYGFQSISGIPSRFSGSGSGTDFTLRINSVETEDFGMYFCQQTNSWPLTFGAGTKLELK | 0.0902 µg/mL | 30% | 11000 | 128000 | 0.0503 nM | 0.000111 s⁻¹ | 2.21e+06 M⁻¹ s⁻¹ | ~100 ng/mL | –
MHC1693-3-16HA (antibody, V domains shown, Mouse hybridoma monoclonal antibody; also called Ab3-16HA) VH: EVQLQQSGAELVRPGALVKLSCKGSGFNIKDYYIHWVKQRPEQGLEWIGRIDPENDITMYDPKFQGKASITADTSSNTAYLQLSSLTSEDTAVYYCARNGNFFAYWGQGTLVTVSA VL: not shown | – | 57% | 15200 | 206000 | – | – | – | – | –
MHC1695-3-30A (antibody, V domains shown, Mouse hybridoma monoclonal antibody) VH: QVTLKESGPGILQPSQTLSLTCSFSGFSLSTSHMGVGWIRQPSGKGLEWLLHILWNDSVYYNPALKSRLTISKDTYNKQVFLKIANVDTADTATYYCARIVYYGISYVGYFDVWGAGTTVTVSS VL: DIQMTQSPSSLSASLGERVSLTCRASQEISGYLSWLQQKPDGTIKRLIYAASTLNSGVPRRFSGSRSGSDYSLTISSLESEDFADYYCLQYASYPFTFGSGTKLEIK | – | 48% | 13000 | 151000 | – | – | – | ~1000 ng/mL | –
MHC1692-1-23DA (antibody, V domains shown, Mouse hybridoma monoclonal antibody (detected with anti-mouse IgG); also called Ab1-23DA) VH: QVTLKESGPGILQPSQTLSLTCSFSGFSLSTSTMGVGWIRQPSGKGLEWLLHILWNDSKYYNPALKSRLTISKDTYNKQVFLKIANVDTADTATYYCARIVYYSTYVGYFDVWGAGTTVTVSS VL: DIQMTQSPSSLSASLGERVSLTCRASQEISGYLSWLQQKPDGTIKRLIYAASTLHSGVPKRFSGSRSGSDYSLTISRLESEDVADYYCLQYASYPFTFGSGTKLEIR | 0.0701 µg/mL | 49% | 13300 | 119000 | – | – | – | ~60 ng/mL | –
MHC1694-1-18BA (antibody, V domains shown, Mouse hybridoma monoclonal antibody; also called Ab1-18New) VH: QVTLKESGPGILQPSQTLSLTCSFSGFSLSTSTMGVGWIRQPSGKGLEWLLHILWNDSKYYNPALKSRLTISKDTYNKQVFLKIANVDTADTATYYCARIVYYSTYVGYFDVWGAGTTVTVSS VL: DIQMTQSPSSLSASLGERVSLTCRASQEISGYLSWLQQKPDGTIKRLIYAASTLHSGVPKRFSGSRSGSDYSLTISRLESEDVADYYCLQYASYPFTFGSGTKLEIR | – | 58% | 14700 | – | 0.00576 nM | 1.42e-05 s⁻¹ | 2.46e+06 M⁻¹ s⁻¹ | ~80 ng/mL | 0.0788 µg/mL
